Experiment [1] has as its target bcPadR1, PadR-like transcriptional regulator from Bacillus cereus ATCC 14579 (product of gene locus BC4206) (Bacillus cereus ATCC 14579). In words: SEC; analytical gel filtration, Superdex 200 PC 3.2/30; 20 mM Tris-HCl pH 8.0, 200 mM NaCl, 1 mM EDTA, 1 mM dithiothreitol; apparent molecular weight against five marker proteins.
Experiment [2] deals with bcPadR2, PadR-like transcriptional regulator from Bacillus cereus ATCC 10987 (product of gene locus BCE3449) (Bacillus cereus ATCC 10987). The description is as above.

One may read the stoichiometry N as a count of units in the complex or per binding partner. Take “bcPadR1, PadR-like transcriptional regulator from Bacillus cereus ATCC 14579 (product of gene locus BC4206) (natural protein)”: in experiment [1], the stoichiometry N is 2.

On to “bcPadR2, PadR-like transcriptional regulator from Bacillus cereus ATCC 10987 (product of gene locus BCE3449) (natural protein)”, for which the stoichiometry N in experiment [2] is 2.

For the origin of these results see article PMC3506622.
